In patent US20240360228A1 (BIOLEGEND, published 2024):
Blank lines part the entries; values can stand above or below the binder they belong to.

Tests used:
human CCR8 [1] = target: T1, human CCR8 (human, UniProt P51685 1-355); experiment: flow blocking, PBMC CCR8+CD4+; competitor PE-AB13
T1 construct: Native CCR8 on human PBMC (CCR8+ CD3+ or CCR8+ CD4+ lymphocytes); also called chemokine (C-C motif) receptor 8
Procedure: (§1) For blocking studies, 100 μL of the cell suspension were incubated with 10 μg purified isotype control, AB1, AB2, AB3, AB4, AB5, AB8, AB9, AB10, AB11, AB12, AB13, AB14, AB15, and Commercial ABI antibodies, or isotype control, as blocking agents.
(§2) After incubation with the blocking agent, the cells were incubated with 0.25 μg of the indicated PE-conjugated antibody plus anti-human CD4 APC or anti-human CD3 for another 15 minutes in the dark and then washed 2 times with Cell Staining Buffer, and acquired in a FACSCanto II flow cytometer (BD Biosciences); the data was analyzed using FCS Express (De Novo Software); MFI correspond to the CCR8+ CD4+ lymphocytes or CCR8+ CD3+ lymphocytes.

human CCR8 [2] = target: T1, human CCR8; experiment: flow blocking, PBMC CCR8+CD3+; competitor PE-433H
Procedure: as §1, §2
(§3) Percentage original MFI was calculated by dividing the MFI of samples blocked with AB1, AB2, AB3, AB4, AB5, AB6, AB7, AB8, AB9, AB10, AB11, AB12, AB13, AB14, AB15, and Commercial ABI antibodies, by the MFI of samples blocked with the corresponding isotype control. This value was subtracted from 100 to get a blocking percentage. The formula is shown below: […]

human CCR8 [3] = target: T1, human CCR8; experiment: flow blocking, PBMC CCR8+CD3+; competitor PE-AB6
Procedure: as §1, §2, §3

human CCR8 [4] = target: T1, human CCR8; experiment: flow blocking, PBMC CCR8+CD4+; competitor PE-AB12
Procedure: as §1, §2, §3

human CCR8 [5] = target: T1, human CCR8; experiment: flow blocking, PBMC CCR8+CD3+; competitor PE-AB10
Procedure: as §1, §2, §3

human CCR8 [6] = target: T1, human CCR8; experiment: flow blocking, PBMC CCR8+CD3+; competitor PE-AB8
Procedure: as §1, §2, §3

human CCR8 [7] = target: T1, human CCR8; experiment: flow blocking, PBMC CCR8+CD4+; competitor PE-AB14
Procedure: as §1, §2

human CCR8 [8] = target: T1, human CCR8; experiment: flow blocking, PBMC CCR8+CD3+; competitor PE-L263G8
Procedure: as §1, §2, §3

human CCR8 [9] = target: T1, human CCR8; experiment: flow blocking, PBMC CCR8+CD4+; competitor PE-AB10
Procedure: as §1, §2, §3

human CCR8 [10] = target: T1, human CCR8; experiment: flow blocking, PBMC CCR8+CD4+; competitor PE-433H
Procedure: as §1, §2

human CCR8 [11] = target: T1, human CCR8; experiment: flow blocking, PBMC CCR8+CD4+; competitor PE-AB3
Procedure: as §1, §2, §3

human CCR8 [12] = target: T1, human CCR8; experiment: flow blocking, PBMC CCR8+CD4+; competitor PE-AB5
Procedure: as §1, §2, §3

human CCR8 [13] = target: T1, human CCR8; experiment: flow blocking, PBMC CCR8+CD4+; competitor PE-AB2
Procedure: as §1, §2, §3

human CCR8 [14] = target: T1, human CCR8; experiment: flow blocking, PBMC CCR8+CD4+; competitor PE-AB11
Procedure: as §1, §2, §3

human CCR8 [15] = target: T1, human CCR8; experiment: flow blocking, PBMC CCR8+CD3+; competitor PE-AB13
Procedure: as §1, §2, §3

human CCR8 [16] = target: T1, human CCR8; experiment: flow blocking, PBMC CCR8+CD4+; competitor PE-AB6
Procedure: as §1, §2

human CCR8 [17] = target: T1, human CCR8; experiment: flow blocking, PBMC CCR8+CD4+; competitor PE-AB4
Procedure: as §1, §2, §3

human CCR8 [18] = target: T1, human CCR8; experiment: flow blocking, PBMC CCR8+CD3+; competitor PE-AB11
Procedure: as §1, §2, §3

human CCR8 [19] = target: T1, human CCR8; experiment: flow blocking, PBMC CCR8+CD4+; competitor PE-AB15
Procedure: as §1, §2, §3

human CCR8 [20] = target: T1, human CCR8; experiment: flow blocking, PBMC CCR8+CD3+; competitor PE-AB14
Procedure: as §1, §2, §3

human CCR8 [21] = target: T1, human CCR8; experiment: flow blocking, PBMC CCR8+CD3+; competitor PE-AB15
Procedure: as §1, §2, §3

human CCR8 [22] = target: T1, human CCR8; experiment: flow blocking, PBMC CCR8+CD3+; competitor PE-AB12
Procedure: as §1, §2, §3

human CCR8 [23] = target: T1, human CCR8; experiment: flow blocking, PBMC CCR8+CD4+; competitor PE-AB1
Procedure: as §1, §2, §3

human CCR8 [24] = target: T1, human CCR8; experiment: flow blocking, PBMC CCR8+CD3+; competitor PE-AB7
Procedure: as §1, §2, §3

human CCR8 [25] = target: T1, human CCR8; experiment: flow blocking, PBMC CCR8+CD3+; competitor PE-AB5
Procedure: as §1, §2, §3

T1 sequence (P51685 whole entry): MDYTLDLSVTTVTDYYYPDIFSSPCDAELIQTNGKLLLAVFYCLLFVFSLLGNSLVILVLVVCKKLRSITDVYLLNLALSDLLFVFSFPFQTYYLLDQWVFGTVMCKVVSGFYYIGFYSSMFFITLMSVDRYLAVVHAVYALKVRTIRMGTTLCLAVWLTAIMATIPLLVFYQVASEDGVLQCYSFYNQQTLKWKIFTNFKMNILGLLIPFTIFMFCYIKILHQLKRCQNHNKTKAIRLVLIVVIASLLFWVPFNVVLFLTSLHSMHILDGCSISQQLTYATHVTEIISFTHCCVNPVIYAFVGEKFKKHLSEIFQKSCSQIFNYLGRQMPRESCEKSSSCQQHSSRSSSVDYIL

- % Blocking (human CCR8 [1]): 27.8%
- % Positive cells (human CCR8 [1]): 1.43%
- % Blocking (human CCR8 [2]): -5.58%
- MFI (human CCR8 [2]): 936
- % Blocking (human CCR8 [3]): 37.3%
- MFI (human CCR8 [3]): 579
- % Blocking (human CCR8 [4]): 0%
- % Positive cells (human CCR8 [4]): 1.8%
- % Blocking (human CCR8 [5]): -20.7%
- MFI (human CCR8 [5]): 962
- % Blocking (human CCR8 [6]): 5.47%
- MFI (human CCR8 [6]): 1120
- % Blocking (human CCR8 [7]): -25.4%
- % Positive cells (human CCR8 [7]): 1.63%
- % Blocking (human CCR8 [8]): -14.2%
- MFI (human CCR8 [8]): 769
- % Blocking (human CCR8 [9]): 5.41%
- % Positive cells (human CCR8 [9]): 1.4%
- % Blocking (human CCR8 [10]): 12.5%
- % Positive cells (human CCR8 [10]): 1.54%
- % Blocking (human CCR8 [11]): 95.9%
- % Positive cells (human CCR8 [11]): 0.07%
- % Blocking (human CCR8 [12]): 91.1%
- % Positive cells (human CCR8 [12]): 0.18%
- % Blocking (human CCR8 [13]): 98.8%
- % Positive cells (human CCR8 [13]): 0.02%
- % Blocking (human CCR8 [14]): -6.12%
- % Positive cells (human CCR8 [14]): 2.08%
- % Blocking (human CCR8 [15]): -7.01%
- MFI (human CCR8 [15]): 947
- % Blocking (human CCR8 [16]): 95.5%
- % Positive cells (human CCR8 [16]): 0.09%
- % Blocking (human CCR8 [17]): 93.3%
- % Positive cells (human CCR8 [17]): 0.12%
- % Blocking (human CCR8 [18]): -9.7%
- MFI (human CCR8 [18]): 1020
- % Blocking (human CCR8 [19]): -29.5%
- % Positive cells (human CCR8 [19]): 1.67%
- % Blocking (human CCR8 [20]): 0.46%
- MFI (human CCR8 [20]): 860
- % Blocking (human CCR8 [21]): -1.63%
- MFI (human CCR8 [21]): 873
- % Blocking (human CCR8 [22]): -11.3%
- MFI (human CCR8 [22]): 1140
- % Blocking (human CCR8 [23]): 72.3%
- % Positive cells (human CCR8 [23]): 0.43%
- % Blocking (human CCR8 [24]): -3.38%
- MFI (human CCR8 [24]): 1210
- % Blocking (human CCR8 [25]): 14.8%
- MFI (human CCR8 [25]): 840
B1: AB5 (antibody, V domains shown)
VH: QVQLKESGPGLVQPSQTLSLTCTVSGFSLTSYHVSWVRQPPGKGLEWMGVIWTGGSTTYNSLLKSRLSISRDISKSQVFLKMNSLQTEDTATYYCARGGTVVKGGFAYWGQGTLVTVSS
VL: DIQMTQSPASLSASLEEIVTITCQASQDIGNRLSWYQQKPGKSPQLLIYGATSLADGVPSRFSGSRSGTQYSLKISRLQVEDIGIYYCLQAYSTPLTFGSGTKLEIK
notes: Hybridoma monoclonal; Same VH/VL entries as AB6; also called antibody 5; clone 5

- % Blocking (human CCR8 [2]): 10.7%
- MFI (human CCR8 [2]): 792
- % Blocking (human CCR8 [3]): -4.93%
- MFI (human CCR8 [3]): 969
- % Blocking (human CCR8 [5]): -11.6%
- MFI (human CCR8 [5]): 890
- % Blocking (human CCR8 [6]): 33.8%
- MFI (human CCR8 [6]): 787
- % Blocking (human CCR8 [8]): -16.3%
- MFI (human CCR8 [8]): 783
- % Blocking (human CCR8 [15]): 2.54%
- MFI (human CCR8 [15]): 862
- % Blocking (human CCR8 [18]): -18.3%
- MFI (human CCR8 [18]): 1100
- % Blocking (human CCR8 [20]): 3.88%
- MFI (human CCR8 [20]): 831
- % Blocking (human CCR8 [21]): 13.3%
- MFI (human CCR8 [21]): 745
- % Blocking (human CCR8 [22]): -3.13%
- MFI (human CCR8 [22]): 1050
- % Blocking (human CCR8 [24]): 32.7%
- MFI (human CCR8 [24]): 786
- % Blocking (human CCR8 [25]): 0.71%
- MFI (human CCR8 [25]): 979
B2: AB6 (antibody, V domains shown)
VH: B1 VH
VL: B1 VL
notes: Hybridoma monoclonal; Same VH/VL entries as AB5; also called antibody 6; clone 6
